{
  "source": "the supplement of paper PMC12042874",
  "note": "± gives the uncertainty stated by the source.",
  "data": [
    {"assay": "amyloid nucleation score (Sup35N fusion, yeast selection) (log enrichment); library NNK2; higher = more nucleation; inactive = no reads after selection", "how_it_was_run": "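Three technical output replicates were used for random libraries. Psi-negative yeast expressing peptides of 20 random codons fused to Sup35N were induced with 100 μM copper sulfate for 24 hours and grown 7 days at 30°C on medium lacking adenine and uracil, and input and output plasmid inserts were Illumina-sequenced, excluding sequences with under 100 input reads. The nucleation score is the DiMSum log enrichment of output over input reads, centred on the mode score of non-aggregating sequences.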", "values": [
      {"substance": "HWYLRSV", "amyloid nucleation score": "0.239 ± 0.43"},
      {"substance": "HYCYRHIGRLQMWMKSGLHA", "amyloid nucleation score": "1.04 ± 0.34"},
      {"substance": "HYISRHQLWILFFVKCVNSR", "amyloid nucleation score": "5.01 ± 0.1"},
      {"substance": "HYLNIRQDPY", "amyloid nucleation score": "2.4 ± 0.21"},
      {"substance": "HYQWQYACLWRCVTVRGSDQ", "amyloid nucleation score": "0.949 ± 0.17"},
      {"substance": "HYSIIWTAS", "amyloid nucleation score": "0.233 ± 0.46"},
      {"substance": "HYVYFGYECAFGGG", "amyloid nucleation score": "-0.365 ± 0.76"},
      {"substance": "HYWIVRLDAWVSQSVRWCNP", "amyloid nucleation score": "10.95 ± 0.079"},
      {"substance": "IAAMTFFMMCLTYCVLWIAW", "amyloid nucleation score": "1.71 ± 0.31"},
      {"substance": "IADIVQGSGVAT", "amyloid nucleation score": "-0.178 ± 0.26"},
      {"substance": "IARFSKKTSVSMGTRCAT", "amyloid nucleation score": "0.122 ± 0.3"},
      {"substance": "ICGCKRSTVLWVSCFGV", "amyloid nucleation score": "3.18 ± 0.12"},
      {"substance": "ICIFHDWVIIICCSIRMRCL", "amyloid nucleation score": "-0.823 ± 0.63"},
      {"substance": "ICKFFSIGVH", "amyloid nucleation score": "1.14 ± 0.68"},
      {"substance": "ICMAGEVGKQRGYLDGGMP", "amyloid nucleation score": "0.505 ± 0.54"},
      {"substance": "ICPPAWFKRVNDGGVYALNE", "amyloid nucleation score": "0.904 ± 0.48"},
      {"substance": "ICQCPVNTANTQLGVGTRLK", "amyloid nucleation score": "0.114 ± 0.5"},
      {"substance": "ICRNGLSL", "amyloid nucleation score": "0.098 ± 0.26"},
      {"substance": "ICRPGYGY", "amyloid nucleation score": "inactive"},
      {"substance": "ICSCTGTYVVRNRMTGTL", "amyloid nucleation score": "-0.786 ± 0.49"},
      {"substance": "ICSSPLRIISINKLSGTYNL", "amyloid nucleation score": "2.25 ± 0.14"},
      {"substance": "ICWPSLLYAPGTVKMSTERV", "amyloid nucleation score": "0.706 ± 0.6"},
      {"substance": "IDCRELFVSLQVNRMLE", "amyloid nucleation score": "0.234 ± 0.49"},
      {"substance": "IDLFFAYSHRV", "amyloid nucleation score": "4.501 ± 0.044"},
      {"substance": "IDNEMYFAHGIRGDSLL", "amyloid nucleation score": "inactive"},
      {"substance": "IDRCRNC", "amyloid nucleation score": "inactive"},
      {"substance": "IENRLWIWSLH", "amyloid nucleation score": "0.673 ± 0.32"},
      {"substance": "IERPVRVHRYKT", "amyloid nucleation score": "inactive"},
      {"substance": "IESSVCPGRRPGLLPTLKAG", "amyloid nucleation score": "0.901 ± 0.31"},
      {"substance": "IFAVGTTTASKCVWKIVEQE", "amyloid nucleation score": "2.09 ± 0.11"},
      {"substance": "IFDIWTSIAVRDLLLNGRSW", "amyloid nucleation score": "0.561 ± 0.31"},
      {"substance": "IFFALNSTPPYYIYPEFKLQ", "amyloid nucleation score": "inactive"},
      {"substance": "IFFVSDVESNIGRWLRRCFP", "amyloid nucleation score": "5.465 ± 0.054"},
      {"substance": "IFHLGLRR", "amyloid nucleation score": "5.706 ± 0.053"},
      {"substance": "IFISRVNDFTVMGGDWSFRG", "amyloid nucleation score": "3.64 ± 0.083"},
      {"substance": "IFKINVVVSSNTAQ", "amyloid nucleation score": "2.4 ± 0.21"},
      {"substance": "IFKQVTIYLYGGRSLLGSRR", "amyloid nucleation score": "-0.507 ± 0.54"},
      {"substance": "IFPVLPGTLYRCTMMC", "amyloid nucleation score": "-0.612 ± 0.32"},
      {"substance": "IFSLP", "amyloid nucleation score": "-0.464 ± 0.5"},
      {"substance": "IFWAYAICCIYGLRGCRGEY", "amyloid nucleation score": "6.64 ± 0.084"},
      {"substance": "IFYSSLALVWLYNLMDRECT", "amyloid nucleation score": "2.18 ± 0.17"},
      {"substance": "IGCSWSKQELVISNLLVFLF", "amyloid nucleation score": "-1.52 ± 0.62"},
      {"substance": "IGILSREGYWGGNRFLGYQL", "amyloid nucleation score": "-1.32 ± 0.62"},
      {"substance": "IGKGRFNVYCMN", "amyloid nucleation score": "-0.64 ± 0.79"},
      {"substance": "IGSRSMNYWLVVFD", "amyloid nucleation score": "1.48 ± 0.11"},
      {"substance": "IGSWVVEFGRFGYCFHGVID", "amyloid nucleation score": "3.19 ± 0.089"},
      {"substance": "IGTMVEREKL", "amyloid nucleation score": "0.299 ± 0.39"},
      {"substance": "IHDALTRCEWGSVSPRSSGC", "amyloid nucleation score": "0.682 ± 0.28"},
      {"substance": "IHKETGLEIVARRKVHFDGG", "amyloid nucleation score": "0.524 ± 0.26"},
      {"substance": "IHLPKCISVSFRVSVGFLDM", "amyloid nucleation score": "inactive"},
      {"substance": "IHNPLVRY", "amyloid nucleation score": "-0.366 ± 0.41"},
      {"substance": "IICNLKISSMQDKGVMQAVF", "amyloid nucleation score": "-0.871 ± 0.28"},
      {"substance": "IICSNRQIRFKKGDFFIVFW", "amyloid nucleation score": "inactive"},
      {"substance": "IIFPGCKYLRYKDKEK", "amyloid nucleation score": "inactive"},
      {"substance": "IIILYCGRYLINWTFLSCAY", "amyloid nucleation score": "inactive"},
      {"substance": "IIPLMLFSTLWGFKVHMKGY", "amyloid nucleation score": "-0.207 ± 0.55"},
      {"substance": "IIPRMLDMPLSVWQEIIRFW", "amyloid nucleation score": "0.45 ± 0.5"},
      {"substance": "IITIYLLAELNSVSVTSTSI", "amyloid nucleation score": "5.138 ± 0.03"},
      {"substance": "IIVGATKMLCCFHVMMVYAP", "amyloid nucleation score": "0.472 ± 0.8"},
      {"substance": "IIYYMTVCQDSIDRIVPFCN", "amyloid nucleation score": "2.01 ± 0.14"},
      {"substance": "IKAFWS", "amyloid nucleation score": "inactive"},
      {"substance": "IKLDIYNWAFSFNWFDK", "amyloid nucleation score": "6.05 ± 0.075"},
      {"substance": "IKNLRNQGK", "amyloid nucleation score": "-0.745 ± 0.61"},
      {"substance": "IKRSTNISEMWHYSFGVTVL", "amyloid nucleation score": "-1.09 ± 0.63"},
      {"substance": "IKVDSAWETIAVVM", "amyloid nucleation score": "0.246 ± 0.33"},
      {"substance": "ILADINL", "amyloid nucleation score": "inactive"},
      {"substance": "ILAITRINA", "amyloid nucleation score": "1.19 ± 0.13"},
      {"substance": "ILDLWIVESKCFTSNMLHWV", "amyloid nucleation score": "-0.424 ± 0.76"},
      {"substance": "ILGSARYIVCGQVSEMRSAG", "amyloid nucleation score": "0.367 ± 0.49"},
      {"substance": "ILHPADQNSCT", "amyloid nucleation score": "-1.26 ± 0.34"},
      {"substance": "ILIKYVLAPWSSSLTVWGKA", "amyloid nucleation score": "-0.365 ± 0.3"},
      {"substance": "ILKSRSLVRFHFFSIGASCA", "amyloid nucleation score": "0.427 ± 0.41"},
      {"substance": "ILPISVLVDHINWSDPYFIM", "amyloid nucleation score": "0.035 ± 1"},
      {"substance": "ILPYGVWTRIASIKLK", "amyloid nucleation score": "0.789 ± 0.17"},
      {"substance": "ILQYN", "amyloid nucleation score": "-1.49 ± 0.62"},
      {"substance": "ILSARRCFAQMVFVLYQNLV", "amyloid nucleation score": "-0.171 ± 0.33"},
      {"substance": "ILSFTGASNFVCYMIVAKAG", "amyloid nucleation score": "6.386 ± 0.033"},
      {"substance": "ILSLEDLSLVRYGAIDS", "amyloid nucleation score": "-0.483 ± 1.1"},
      {"substance": "ILSTVTDSSCNIACSCNNN", "amyloid nucleation score": "8.363 ± 0.047"},
      {"substance": "ILVLW", "amyloid nucleation score": "-0.022 ± 0.46"},
      {"substance": "ILWPLHVWYVICYRSNMWSY", "amyloid nucleation score": "5.27 ± 0.077"},
      {"substance": "ILYMTDKLDQSSCLGLMSSH", "amyloid nucleation score": "-1.81 ± 0.78"},
      {"substance": "IMASLRMKDANCLSCTCYNR", "amyloid nucleation score": "6.798 ± 0.027"},
      {"substance": "IMCRRG", "amyloid nucleation score": "0.698 ± 0.52"},
      {"substance": "IMMLEVDDLYGIEQSTFWK", "amyloid nucleation score": "-0.33 ± 0.64"}
    ]}
  ]
}
